The results in this text go back to the RNAGym collection of RNA variant scans (doi:10.7554/elife.80360).

First the molecules themselves.
B1: CPEB3 Ribozyme (parent)
chain: GGGGGCCACAGCAGAAGCGUUCACGUCGCGGCCCCUGUCAGAUUCUGGUGAAUCUGCGAAUUCUGCUGU

Variants of B1 are the subject of this data set. Put plainly: self-cleavage, relative activity (ratio to wild type); higher = more cleavage; co-transcriptional.
On to GGGGGCCACAGCAGAAGCGUUCACGUCGCGGCCCCUGUCAGAUUCUGGUGAAUGUGCGAAUACUGCUGU [C54G U62A], for which the self-cleavage was found to be 0.59. Regarding GGGGGCCACAGCAGAAGCGUUCACGUCGCGGCCCCUGUCAGAUUCUGGUGAAUAUGCGAAUUCUACUGU [C54A G65A], the self-cleavage amounted to 0.629. For GGGGGCCACAGCAGAAGCGUUCACGUCGCGGCCCCUGUCAGAUUCUGGUGAAUAUGCGAAUUCUUCUGU [C54A G65U] the value was 0.519.

Take GGGGGCCACAGCAGAAGCGUUCACGUCGCGGCCCCUGUCAGAUUCUGGUGAAUUUGCGAAUUGUGCUGU [C54U C63G]: the self-cleavage stood at 0.859.

As to GGGGGCCACAGCAGAAGCGUUCACGUCGCGGCCCCUGUCAGAUUCUGGUGAAUUUGCGAAUUAUGCUGU [C54U C63A], the self-cleavage came out at 0.797. As for GGGGGCCACAGCAGAAGCGUUCACGUCGCGGCCCCUGUCAGAUUCUGGUGAAUUUGCGAUUUCUGCUGU [C54U A60U], the self-cleavage came to 0.468. Next, GGGGGCCACAGCAGAAGCGUUCACGUCGCGGCCCCUGUCAGAUUCUGGUGAAUUUGCGACUUCUGCUGU [C54U A60C]: 0.211; GGGGGCCACAGCAGAAGCGUUCACGUCGCGGCCCCUGUCAGAUUCUGGUGAAUGUGCGAAUUCUGCCGU [C54G U67C]: 0.819; GGGGGCCACAGCAGAAGCGUUCACGUCGCGGCCCCUGUCAGAUUCUGGUGAAUGUGCGAAUUCUGCGGU [C54G U67G]: 0.925. With GGGGGCCACAGCAGAAGCGUUCACGUCGCGGCCCCUGUCAGAUUCUGGUGAAUGUGCGAAUUGUGCUGU [C54G C63G], the self-cleavage was 0.514.

As for GGGGGCCACAGCAGAAGCGUUCACGUCGCGGCCCCUGUCAGAUUCUGGUGAAUGUGCGAAUUUUGCUGU [C54G C63U], the self-cleavage stood at 0.797. For the variant GGGGGCCACAGCAGAAGCGUUCACGUCGCGGCCCCUGUCAGAUUCUGGUGAAUUUGCGAAUUCUGCAGU [C54U U67A], the self-cleavage is 0.993. Regarding GGGGGCCACAGCAGAAGCGUUCACGUCGCGGCCCCUGUCAGAUUCUGGUGAAUAUGCGAAUGCUGCUGU [C54A U62G], the self-cleavage came to 0.58. Take GGGGGCCACAGCAGAAGCGUUCACGUCGCGGCCCCUGUCAGAUUCUGGUGAAUAUGCGAAUCCUGCUGU [C54A U62C]: the self-cleavage is 0.538. With GGGGGCCACAGCAGAAGCGUUCACGUCGCGGCCCCUGUCAGAUUCUGGUGAAUUUGCAAAUUCUGCUGU [C54U G58A], the self-cleavage was found to be 0.987. Regarding GGGGGCCACAGCAGAAGCGUUCACGUCGCGGCCCCUGUCAGAUUCUGGUGAAUUUGCCAAUUCUGCUGU [C54U G58C], the self-cleavage was determined as 0.97.

Regarding GGGGGCCACAGCAGAAGCGUUCACGUCGCGGCCCCUGUCAGAUUCUGGUGAAUAUGCGAAAUCUGCUGU [C54A U61A], the self-cleavage amounted to 0.512.

On to GGGGGCCACAGCAGAAGCGUUCACGUCGCGGCCCCUGUCAGAUUCUGGUGAAUAUGCGAACUCUGCUGU [C54A U61C], for which the self-cleavage is 0.44. Regarding GGGGGCCACAGCAGAAGCGUUCACGUCGCGGCCCCUGUCAGAUUCUGGUGAAUAUGCGAAGUCUGCUGU [C54A U61G], the self-cleavage was 0.415. GGGGGCCACAGCAGAAGCGUUCACGUCGCGGCCCCUGUCAGAUUCUGGUGAAUGUGCGAACUCUGCUGU [C54G U61C]: the self-cleavage amounted to 0.429. For GGGGGCCACAGCAGAAGCGUUCACGUCGCGGCCCCUGUCAGAUUCUGGUGAAUAUGCGAAUUCAGCUGU [C54A U64A] the value was 0.543. For the variant GGGGGCCACAGCAGAAGCGUUCACGUCGCGGCCCCUGUCAGAUUCUGGUGAAUAUGCGAAUUCCGCUGU [C54A U64C], the self-cleavage worked out at 0.483. As to GGGGGCCACAGCAGAAGCGUUCACGUCGCGGCCCCUGUCAGAUUCUGGUGAAUAUACGAAUUCUGCUGU [C54A G56A], the self-cleavage turned out to be 0.695.

Regarding GGGGGCCACAGCAGAAGCGUUCACGUCGCGGCCCCUGUCAGAUUCUGGUGAAUAUUCGAAUUCUGCUGU [C54A G56U], the self-cleavage worked out at 0.471. For the variant GGGGGCCACAGCAGAAGCGUUCACGUCGCGGCCCCUGUCAGAUUCUGGUGAAUUUGCGAAGUCUGCUGU [C54U U61G], the self-cleavage was found to be 0.779. For GGGGGCCACAGCAGAAGCGUUCACGUCGCGGCCCCUGUCAGAUUCUGGUGAAUUUGCGAAAUCUGCUGU [C54U U61A], the self-cleavage amounted to 0.933. With GGGGGCCACAGCAGAAGCGUUCACGUCGCGGCCCCUGUCAGAUUCUGGUGAAUGUGCGAAUUCUGCUGA [C54G U69A], the self-cleavage is 1.01. Regarding GGGGGCCACAGCAGAAGCGUUCACGUCGCGGCCCCUGUCAGAUUCUGGUGAAUGUGCGAAUUCUGCUGG [C54G U69G], the self-cleavage stood at 1.05. Consider GGGGGCCACAGCAGAAGCGUUCACGUCGCGGCCCCUGUCAGAUUCUGGUGAAUAUGCGAAUUCUGCUAU [C54A G68A], for which the self-cleavage stood at 0.955. On to GGGGGCCACAGCAGAAGCGUUCACGUCGCGGCCCCUGUCAGAUUCUGGUGAAUUUGCGGAUUCUGCUGU [C54U A59G], for which the self-cleavage amounted to 1.04.

GGGGGCCACAGCAGAAGCGUUCACGUCGCGGCCCCUGUCAGAUUCUGGUGAAUUUGCGUAUUCUGCUGU [C54U A59U]: the self-cleavage was 0.883.

For GGGGGCCACAGCAGAAGCGUUCACGUCGCGGCCCCUGUCAGAUUCUGGUGAAUGUGCGAAUUCUGCUGU [C54G], the self-cleavage worked out at 0.951. On to GGGGGCCACAGCAGAAGCGUUCACGUCGCGGCCCCUGUCAGAUUCUGGUGAAUUUGCGAAUUCUGCUGU [C54U], for which the self-cleavage amounted to 1. In the case of GGGGGCCACAGCAGAAGCGUUCACGUCGCGGCCCCUGUCAGAUUCUGGUGAAUUUGCGAAUUCUGGUGU [C54U C66G], the self-cleavage came out at 0.837. In the case of GGGGGCCACAGCAGAAGCGUUCACGUCGCGGCCCCUGUCAGAUUCUGGUGAAUUUGCGAAUUCUGAUGU [C54U C66A], the self-cleavage came to 0.845. GGGGGCCACAGCAGAAGCGUUCACGUCGCGGCCCCUGUCAGAUUCUGGUGAAUUUGCGAAUUCUGUUGU [C54U C66U]: the self-cleavage is 0.975. As to GGGGGCCACAGCAGAAGCGUUCACGUCGCGGCCCCUGUCAGAUUCUGGUGAAUGUCCGAAUUCUGCUGU [C54G G56C], the self-cleavage was determined as 0.43. As for GGGGGCCACAGCAGAAGCGUUCACGUCGCGGCCCCUGUCAGAUUCUGGUGAAUGUACGAAUUCUGCUGU [C54G G56A], the self-cleavage came out at 0.658. Take GGGGGCCACAGCAGAAGCGUUCACGUCGCGGCCCCUGUCAGAUUCUGGUGAAUUUGCGAAUUCUGCUAU [C54U G68A]: the self-cleavage was determined as 1.02.
